# Results: patent US20110142849A1 (IRM, published 2011)
# T1: hβ-Klotho (human, UniProt Q86Z14)
# T1 construct: panel antigen of the specificity ELISA
# T1 sequence (antigen, looked up): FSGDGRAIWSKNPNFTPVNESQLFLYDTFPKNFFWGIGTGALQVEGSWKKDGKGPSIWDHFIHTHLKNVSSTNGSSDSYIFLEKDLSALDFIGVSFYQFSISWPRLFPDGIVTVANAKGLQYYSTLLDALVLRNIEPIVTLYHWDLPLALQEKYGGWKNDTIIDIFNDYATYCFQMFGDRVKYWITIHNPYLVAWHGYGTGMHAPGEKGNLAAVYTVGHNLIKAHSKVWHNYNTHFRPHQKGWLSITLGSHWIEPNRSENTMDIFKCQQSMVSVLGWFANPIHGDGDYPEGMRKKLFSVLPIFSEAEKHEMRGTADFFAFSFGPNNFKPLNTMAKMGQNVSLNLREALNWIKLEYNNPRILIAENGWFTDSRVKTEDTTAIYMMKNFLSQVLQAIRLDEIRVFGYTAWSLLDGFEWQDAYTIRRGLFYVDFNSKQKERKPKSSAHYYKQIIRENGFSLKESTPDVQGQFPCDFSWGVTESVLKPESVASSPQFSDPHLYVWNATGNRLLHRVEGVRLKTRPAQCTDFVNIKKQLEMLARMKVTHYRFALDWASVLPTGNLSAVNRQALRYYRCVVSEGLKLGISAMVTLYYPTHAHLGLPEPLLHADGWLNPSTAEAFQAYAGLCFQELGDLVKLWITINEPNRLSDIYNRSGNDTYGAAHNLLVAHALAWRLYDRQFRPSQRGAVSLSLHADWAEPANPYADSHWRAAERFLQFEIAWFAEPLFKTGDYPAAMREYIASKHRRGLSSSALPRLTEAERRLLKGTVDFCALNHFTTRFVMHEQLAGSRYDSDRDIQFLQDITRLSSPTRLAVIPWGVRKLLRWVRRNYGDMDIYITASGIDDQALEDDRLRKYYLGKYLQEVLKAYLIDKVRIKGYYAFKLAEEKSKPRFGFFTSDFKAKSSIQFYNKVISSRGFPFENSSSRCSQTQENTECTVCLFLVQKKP
# B1: NVP-LFU720 (antibody, V domains shown)
# VH: EVQLQQSGAELMKPGASVKLSCTASGFNIKDMYMSWVRQRPEQGLEWIGRIDPANGHTNYDPKFQAKATITTDTSSKTAYLHLSSLTSEDTAVYYCARSYYYYAMDYWGQGTSVTVSS
# VL: QIVLTQSPAIMSASPGEKVTMTCSASSSVSYMHWYQQKPGSSPRLWIYLTFNLASGVPARFSGSGSGTSYSLSISSMEAEDAATYYCLQWSSDPPTFGSGTKLEIK
# notes: Murine anti-human Pcsk9 IgG1-kappa monoclonal antibody from a hybridoma; also called 5P20; NVP-LFU720-AX-1
# B2: NVP-LGT211 (antibody, human IgG1, V domains shown)
# VH: QVQLVQSGAEVKKPGASVKVSCKASGYTFSTMYMSWVRQAPGQGLEWMGRIDPANEHTNYAQKFQGRVTMTRDTSISTAYMELSRLTSDDTAVYYCARSYYYYAMDYWGQGTLVTVSS
# VL: QIVLTQSPATLSVSPGERATLSCRASQSVSYMHWYQQKPGQAPRLLIYGVFRRATGIPDRFSGSGSGTDFTLTIGRLEPEDFAVYYCLQWSSDPPTFGQGTKLEIKR
# notes: Silent human IgG1 kappa; also called pSR74 (Vh) + pJG10 (Vk); pSR074 + pJG10
# Key:
# [1] = molecular target: T2, mouse Pcsk9 with C-terminal his6 tag (mouse, UniProt Q80W65 35-694, limits assumed); assay: ELISA
# T2 construct: also called murine PCSK9
# [2] = molecular target: T3, human LDL-R protein (human, UniProt P01130 22-788, limits assumed); assay: ELISA
# T3 construct: Labelled with europium in the TR-FRET assay; also called hLDL-R; hLDL-R-Eu (europium-labelled)
# [3] = molecular target: T4, recombinant human Pcsk9 (aa 31-692) with C-terminal his6 tag (human, UniProt Q8NBP7 31-692); assay: TR-FRET, disruption of hLDL-R-Eu and hPcsk9-AF
# T4 construct: In the TR-FRET assay it carried a fluorophore (hPcsk9-AF); also called hPCSK9; hPcsk9
# Method: The TR-FRET assay was performed in 384-well white, shallow plates (Perkin Elmer, 6008280). hPcsk9-AF (10.7 nM) was incubated with serial dilutions of unlabeled hPcsk9 protein, EGF-A peptide, or NVP-LFU720-AX-1 antibody for 30 minutes at room temperature in 15 μL of assay buffer (20 mM HEPES, pH 7.2, 150 mM NaCl, 1 mM CaCl₂, 0.1% v/v Tween 20, and 0.1% w/v BSA). This was followed by addition of 5 μL of hLDL-R-Eu (4 nM) in assay buffer to the hPcsk9 and NVP-LFU720-AX-1 preincubated complex, and incubation at room temperature for 90 minutes. The final concentrations of these labeled proteins were 8 nM of hPcsk9-AF and 1 nM of hLDL-R-Eu. The TR-FRET signal was measured with EnVision 2100 multilabel reader (Perkin Elmer) at 330 nm excitation and 665 nm emission. Data was converted to normalized values using the following formula: [(665 nm value×10,000)/(615 nm value)]. The percentage inhibition was calculated with the following formula: 100-[(normalized value of treated sample/averaged normalized value of untreated samples)×100]. The percentage inhibition dose response curves were plotted using Prism version 5 with the formula, Y=Bottom+(Top−Bottom)/(1+10̂((LogIC₅₀−X)*HillSlope)) (GraphPad Prism Software).
# TR-FRET assay was used for determining if the anti-hPcsk9 antibody NVP-LFU720 could disrupt the interaction between hPcsk9-AF and hLDL-R-Eu labeled proteins. […]
# [4] = molecular target: T5, S681X (human, UniProt Q8NBP7); assay: co-immunoprecipitation with 5P20, blot
# T5 construct: C-terminal truncation mutant, expressed protein; also called Pcsk9 C-term mutant S681X
# [5] = molecular target: T6, R682X (human, UniProt Q8NBP7); assay: co-immunoprecipitation with 5P20, blot
# T6 construct: C-terminal truncation mutant, expressed protein; also called Pcsk9 C-term mutant R682X
# [6] = molecular target: T7, H683X (human, UniProt Q8NBP7); assay: co-immunoprecipitation with 5P20, blot
# T7 construct: C-terminal truncation mutant, expressed protein; also called Pcsk9 C-term mutant H683X
# [7] = molecular target: T8, A685X (human, UniProt Q8NBP7); assay: co-immunoprecipitation with 5P20, blot
# T8 construct: C-terminal truncation mutant, expressed protein; also called C-term mutant A685X
# [8] = molecular target: T1, hβ-Klotho; assay: specificity ELISA on coated antigen (88 ng per well), antibody at 2 µg/mL, ABS650
# Method: For specificity ELISAs on purified human and mouse IgGs, a 384-well plate was coated with a panel of purified human or mouse antigens at 88 ng per well and incubated overnight at 4° C. The plate was blocked and washed as described above, then 22 μL of purified mouse or human anti-PCSK9 antibody diluted to 2 μg/mL in PBS was added to each well. The plate was incubated for 1 hr at 37° C. then washed with PBST. Anti-mouse Fc antibody (Jackson ImmunoResearch Labs #115-035-071) or anti-human kappa antibody (Sigma #A7164) conjugated to HRP was diluted 1:5000 in PBS (25 μL) and added to each well. The plate was incubated for 1 hr at room temperature, then washed and developed as described above.
# In order to test whether the antigen specificity of the parental mouse antibody LFU720 was retained in the final Humaneered™ IgGs, LGT209, LGT210 and LGT211, binding of the antibodies to a panel of human and mouse antigens (as well as human PCSK9) was tested in an ELISA assay.
# [9] = molecular target: T2, mouse Pcsk9 with C-terminal his6 tag; assay: not told in the legend
# T2 sequence (Q80W65 other isoform, or with tags, fused parts or gaps limits assumed): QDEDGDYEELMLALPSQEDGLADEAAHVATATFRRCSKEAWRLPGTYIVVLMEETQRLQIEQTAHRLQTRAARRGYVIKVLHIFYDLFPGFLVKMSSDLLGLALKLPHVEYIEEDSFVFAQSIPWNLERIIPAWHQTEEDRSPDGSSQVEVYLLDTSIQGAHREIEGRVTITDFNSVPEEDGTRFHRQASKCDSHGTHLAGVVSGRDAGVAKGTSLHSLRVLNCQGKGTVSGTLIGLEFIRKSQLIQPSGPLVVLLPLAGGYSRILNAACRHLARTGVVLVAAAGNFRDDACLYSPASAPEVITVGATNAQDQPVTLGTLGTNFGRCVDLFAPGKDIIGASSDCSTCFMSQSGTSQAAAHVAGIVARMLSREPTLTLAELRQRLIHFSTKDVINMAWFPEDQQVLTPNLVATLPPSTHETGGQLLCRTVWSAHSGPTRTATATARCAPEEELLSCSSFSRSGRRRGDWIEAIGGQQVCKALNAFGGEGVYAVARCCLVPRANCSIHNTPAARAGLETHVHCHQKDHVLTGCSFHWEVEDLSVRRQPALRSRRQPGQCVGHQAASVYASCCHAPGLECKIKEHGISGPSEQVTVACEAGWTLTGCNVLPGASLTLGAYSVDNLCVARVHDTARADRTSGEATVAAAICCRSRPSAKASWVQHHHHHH
# T3 sequence (P01130 22-788 limits assumed): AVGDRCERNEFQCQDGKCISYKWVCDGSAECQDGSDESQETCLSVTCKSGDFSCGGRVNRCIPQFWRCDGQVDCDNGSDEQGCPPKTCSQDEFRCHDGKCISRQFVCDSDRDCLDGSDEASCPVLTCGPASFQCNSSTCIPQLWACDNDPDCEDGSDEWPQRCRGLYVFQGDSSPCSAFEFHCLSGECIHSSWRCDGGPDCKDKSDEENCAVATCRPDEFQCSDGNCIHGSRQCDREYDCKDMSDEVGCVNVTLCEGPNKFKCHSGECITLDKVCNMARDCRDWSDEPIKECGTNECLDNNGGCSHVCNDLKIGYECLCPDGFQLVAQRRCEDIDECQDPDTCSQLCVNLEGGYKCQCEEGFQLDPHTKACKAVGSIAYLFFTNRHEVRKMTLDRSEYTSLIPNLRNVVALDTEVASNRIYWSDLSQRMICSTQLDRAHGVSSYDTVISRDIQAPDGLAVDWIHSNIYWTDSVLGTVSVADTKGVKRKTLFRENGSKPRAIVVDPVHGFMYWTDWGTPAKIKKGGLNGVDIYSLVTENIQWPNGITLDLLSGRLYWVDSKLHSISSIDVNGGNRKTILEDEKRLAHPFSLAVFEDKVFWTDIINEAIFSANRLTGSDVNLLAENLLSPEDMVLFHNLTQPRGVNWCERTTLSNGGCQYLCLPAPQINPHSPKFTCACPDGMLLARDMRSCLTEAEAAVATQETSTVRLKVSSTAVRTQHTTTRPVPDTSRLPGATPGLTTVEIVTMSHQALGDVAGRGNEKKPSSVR
# T8 sequence (Q8NBP7 31-684 limits assumed): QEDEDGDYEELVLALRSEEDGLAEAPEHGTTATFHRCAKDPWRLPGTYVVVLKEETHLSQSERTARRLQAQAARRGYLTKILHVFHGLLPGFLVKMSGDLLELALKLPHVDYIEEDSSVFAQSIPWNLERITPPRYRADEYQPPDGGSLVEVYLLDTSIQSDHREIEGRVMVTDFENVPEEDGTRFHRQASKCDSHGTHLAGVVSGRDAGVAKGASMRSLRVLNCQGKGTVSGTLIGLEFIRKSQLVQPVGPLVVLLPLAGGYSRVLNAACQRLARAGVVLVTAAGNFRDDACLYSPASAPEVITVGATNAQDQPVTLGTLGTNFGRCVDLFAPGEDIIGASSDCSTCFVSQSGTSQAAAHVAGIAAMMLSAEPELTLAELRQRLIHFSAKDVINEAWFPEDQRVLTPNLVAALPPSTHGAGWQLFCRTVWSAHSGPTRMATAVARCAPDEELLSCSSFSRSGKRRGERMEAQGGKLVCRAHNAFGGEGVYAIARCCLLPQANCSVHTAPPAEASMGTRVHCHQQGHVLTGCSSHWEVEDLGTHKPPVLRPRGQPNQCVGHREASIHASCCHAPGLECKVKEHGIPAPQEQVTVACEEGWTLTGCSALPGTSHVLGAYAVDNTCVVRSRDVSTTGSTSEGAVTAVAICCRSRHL
# T5 sequence (Q8NBP7 31-680 limits assumed): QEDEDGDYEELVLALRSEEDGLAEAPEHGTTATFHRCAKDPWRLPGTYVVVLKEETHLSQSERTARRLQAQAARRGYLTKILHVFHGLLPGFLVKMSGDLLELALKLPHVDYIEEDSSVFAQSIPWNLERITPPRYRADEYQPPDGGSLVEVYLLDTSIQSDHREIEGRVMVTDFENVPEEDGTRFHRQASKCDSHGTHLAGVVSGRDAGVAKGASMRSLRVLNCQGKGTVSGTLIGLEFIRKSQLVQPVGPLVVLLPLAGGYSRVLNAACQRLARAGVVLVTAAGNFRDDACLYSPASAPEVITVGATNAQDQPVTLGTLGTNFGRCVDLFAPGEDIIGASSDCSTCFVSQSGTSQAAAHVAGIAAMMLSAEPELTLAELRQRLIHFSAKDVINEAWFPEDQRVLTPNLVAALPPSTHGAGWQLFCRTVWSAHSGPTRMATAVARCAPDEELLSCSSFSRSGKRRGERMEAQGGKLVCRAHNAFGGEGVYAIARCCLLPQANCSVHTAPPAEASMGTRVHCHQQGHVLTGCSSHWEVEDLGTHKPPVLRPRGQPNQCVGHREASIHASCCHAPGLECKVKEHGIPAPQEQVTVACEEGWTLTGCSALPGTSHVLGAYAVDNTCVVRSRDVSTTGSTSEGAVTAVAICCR
# T7 sequence (Q8NBP7 31-682 limits assumed): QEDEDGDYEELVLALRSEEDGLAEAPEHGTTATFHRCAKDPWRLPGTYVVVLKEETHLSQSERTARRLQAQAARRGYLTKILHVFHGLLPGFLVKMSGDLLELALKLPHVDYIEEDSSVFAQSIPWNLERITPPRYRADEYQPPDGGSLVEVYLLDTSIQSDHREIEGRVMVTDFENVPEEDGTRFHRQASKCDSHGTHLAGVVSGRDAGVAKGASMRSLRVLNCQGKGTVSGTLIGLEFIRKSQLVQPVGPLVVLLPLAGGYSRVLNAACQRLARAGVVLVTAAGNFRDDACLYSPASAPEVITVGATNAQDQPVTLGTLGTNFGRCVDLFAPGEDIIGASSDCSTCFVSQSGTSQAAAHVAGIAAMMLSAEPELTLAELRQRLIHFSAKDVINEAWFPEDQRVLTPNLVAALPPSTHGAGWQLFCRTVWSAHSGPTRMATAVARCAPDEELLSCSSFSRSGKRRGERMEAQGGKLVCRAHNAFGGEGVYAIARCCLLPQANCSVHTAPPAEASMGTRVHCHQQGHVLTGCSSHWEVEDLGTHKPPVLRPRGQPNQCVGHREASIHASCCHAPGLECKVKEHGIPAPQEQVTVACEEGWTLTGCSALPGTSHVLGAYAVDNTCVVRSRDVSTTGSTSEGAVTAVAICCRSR
# T6 sequence (Q8NBP7 31-681 limits assumed): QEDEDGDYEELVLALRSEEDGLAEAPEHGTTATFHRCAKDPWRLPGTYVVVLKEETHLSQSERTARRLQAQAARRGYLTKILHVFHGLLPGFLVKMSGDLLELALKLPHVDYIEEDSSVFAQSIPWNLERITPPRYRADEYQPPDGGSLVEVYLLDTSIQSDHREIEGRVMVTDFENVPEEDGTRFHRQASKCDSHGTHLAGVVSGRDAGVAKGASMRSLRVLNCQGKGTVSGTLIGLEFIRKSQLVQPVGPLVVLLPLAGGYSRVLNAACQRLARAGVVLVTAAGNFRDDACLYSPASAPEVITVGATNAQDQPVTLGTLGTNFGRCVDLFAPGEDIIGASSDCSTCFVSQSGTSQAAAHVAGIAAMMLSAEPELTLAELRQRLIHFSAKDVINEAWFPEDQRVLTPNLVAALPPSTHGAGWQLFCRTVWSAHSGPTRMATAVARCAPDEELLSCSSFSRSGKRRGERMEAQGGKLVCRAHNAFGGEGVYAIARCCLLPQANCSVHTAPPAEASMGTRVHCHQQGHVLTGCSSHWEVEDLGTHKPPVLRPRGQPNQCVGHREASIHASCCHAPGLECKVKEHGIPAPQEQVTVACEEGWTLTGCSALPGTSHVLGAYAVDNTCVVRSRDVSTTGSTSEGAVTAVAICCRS
Binder,binding result [1],binding result [2],IC50 [3],binding result [4],binding result [5],binding result [6],binding result [7],binding result [8],binding result [9]
B1,no binding,no binding,> 1000 nM,no binding,no binding,no binding,no binding,no binding (tested: 2 µg/mL),–
B2,–,–,–,–,–,–,–,no binding (tested: 2 µg/mL),no binding
